According to patent US20260209320A1 (ALCHEMAB THERAPEUTICS, published 2026):

T1: Peptide 21 (cyno)
T1 peptide: AQPMLPQPQPPPPPP

T2: Epitope 1 (human, cyno)
T2 peptide: QQQQPPPPPPPPPPP

T3: Peptide 18 (cyno)
T3 peptide: QQQPPPPPPPPPPPP

T4: Peptide 1 (human, cyno)
T4 peptide: QQQQQQQQPPPPPPP

T5: Peptide 3 (human, cyno)
T5 peptide: QQQQQQPPPPPPPPP

T6: Peptide 4 (human, cyno)
T6 peptide: QQQQQPPPPPPPPPP

T7: Peptide 29 (cyno)
T7 peptide: PMLPQPQPPPPPPPP

T8: Peptide 2 (human, cyno)
T8 peptide: QQQQQQQPPPPPPPP

T9: Peptide 30 (cyno)
T9 peptide: MLPQPQPPPPPPPPP

T10: Peptide 25 (cyno)
T10 peptide: QQPPPPPPPPPPPPQ

T11: Peptide 24 (cyno)
T11 peptide: QQQQQQQQQPPPPPP

T12: Peptide 26 (cyno)
T12 construct: the array is said to hold 15-mers
T12 peptide: QPPPPPPPPPPPPQL

T13: Peptide 31 (cyno)
T13 peptide: LPQPQPPPPPPPPPP

T14: Peptide 28 (cyno)
T14 peptide: QPMLPQPQPPPPPPP

T15: Peptide 37 (mouse)
T15 peptide: PPPQAPPPPPPPPPP

T16: Peptide 36 (mouse)
T16 peptide: QPPPQAPPPPPPPPP

T17: Peptide 33 (mouse)
T17 peptide: QQQQPPPQAPPPPPP

T18: Peptide 43 (mouse)
T18 peptide: QPPPQGQPPPPPPPL

T19: Peptide 32 (mouse)
T19 peptide: QQQQQPPPQAPPPPP

T20: Peptide 44 (mouse)
T20 peptide: PPPQGQPPPPPPPLP

T21: Peptide 38 (mouse)
T21 peptide: PPQAPPPPPPPPPPQ

T22: Peptide 35 (mouse)
T22 peptide: QQPPPQAPPPPPPPP

T23: Peptide 40 (mouse)
T23 peptide: QAPPPPPPPPPPQPP

T24: Peptide 42 (mouse)
T24 peptide: PQPPPQGQPPPPPPP

T25: Peptide 39 (mouse)
T25 peptide: PQAPPPPPPPPPPQP

T26: Peptide 34 (mouse)
T26 peptide: QQQPPPQAPPPPPPP

B1: ATL_0005335 (antibody, V domains shown)
VH: EVQLVESGGGLVKPGGSLRLSCAASGFTFNKAWMNWVRQAPGKGLEWVGRIKSGIDGGTTDYAAPVQGRFTISRDDSKNTVYLQMNSLNTEDTAVYYCIPPPYYYYYGLDVWGQGTTVTVSS
VL: QSALTQPASVSGSPGQSITISCTGTSSDIGSYNLVSWYQQHPGNAPKPLIYEGSKRPSGVSARFSGSKSGNTASLTISGLQPEDEADYYCSSYAGFNTLVFGGGTKVTVL
notes: human IgG1; also called ATL_5335
B2: ATL_0005331 (antibody, V domains shown)
VH: B1 VH
VL: QSALTQPRSVSGSPGQSITISCTGTSSDVGSYNLVSWFQQHPGKAPKLIIYEVNKRPSGVPDRFSGSKSGNTASLTVSGLQAEDEADYYCGSYAGTNNVFGTGTKLTVL
notes: human IgG1; also called ATL_5331; Human IgG1 ATL_0005331

Assays:
[1] = molecular target: T27, Mutant Human HTT Exon 1 48Q (GST) (human); experiment: ELISA
T27 construct: recombinant His- and GST-tagged fusion; also called HTT Exon 1 Q48; 48Q HTT Exon-1
T27 sequence (chain, as listed by the source mutant limits assumed): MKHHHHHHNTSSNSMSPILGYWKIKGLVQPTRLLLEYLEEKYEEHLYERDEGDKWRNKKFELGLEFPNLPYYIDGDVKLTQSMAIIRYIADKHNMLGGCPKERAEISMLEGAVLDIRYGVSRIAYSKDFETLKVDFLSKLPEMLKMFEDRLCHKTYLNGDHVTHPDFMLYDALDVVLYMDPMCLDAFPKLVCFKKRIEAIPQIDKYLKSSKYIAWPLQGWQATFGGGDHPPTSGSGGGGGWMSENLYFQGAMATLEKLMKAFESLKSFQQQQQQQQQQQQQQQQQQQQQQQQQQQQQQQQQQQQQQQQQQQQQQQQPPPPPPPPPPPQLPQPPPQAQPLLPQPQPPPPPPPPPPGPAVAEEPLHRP

[2] = molecular target: T1, Peptide 21; experiment: peptide microarray; Sp C1; IgG 10 µg/ml
[3] = molecular target: T2, Epitope 1; experiment: peptide microarray; Sp C1; IgG 10 µg/ml
[4] = molecular target: T3, Peptide 18; experiment: peptide microarray; Sp C1; IgG 10 µg/ml
[5] = molecular target: T4, Peptide 1; experiment: peptide microarray; Sp C1; IgG 10 µg/ml
[6] = molecular target: T5, Peptide 3; experiment: peptide microarray; Sp C1; IgG 10 µg/ml
[7] = molecular target: T6, Peptide 4; experiment: peptide microarray; Sp C2; IgG 1 µg/ml
[8] = molecular target: T7, Peptide 29; experiment: peptide microarray; Sp C2; IgG 1 µg/ml
[9] = molecular target: T8, Peptide 2; experiment: peptide microarray; Sp C2; IgG 1 µg/ml
[10] = molecular target: T1, Peptide 21; experiment: peptide microarray; Sp C2; IgG 1 µg/ml
[11] = molecular target: T9, Peptide 30; experiment: peptide microarray; Sp C2; IgG 1 µg/ml
[12] = molecular target: T10, Peptide 25; experiment: peptide microarray; Sp C2; IgG 1 µg/ml
[13] = molecular target: T5, Peptide 3; experiment: peptide microarray; Sp C2; IgG 1 µg/ml
[14] = molecular target: T11, Peptide 24; experiment: peptide microarray; Sp C2; IgG 1 µg/ml
[15] = molecular target: T12, Peptide 26; experiment: peptide microarray; Sp C2; IgG 10 µg/ml
[16] = molecular target: T6, Peptide 4; experiment: peptide microarray; Sp C2; IgG 10 µg/ml
[17] = molecular target: T7, Peptide 29; experiment: peptide microarray; Sp C2; IgG 10 µg/ml
[18] = molecular target: T8, Peptide 2; experiment: peptide microarray; Sp C2; IgG 10 µg/ml
[19] = molecular target: T1, Peptide 21; experiment: peptide microarray; Sp C2; IgG 10 µg/ml
[20] = molecular target: T2, Epitope 1; experiment: peptide microarray; Sp C2; IgG 10 µg/ml
[21] = molecular target: T13, Peptide 31; experiment: peptide microarray; Sp C2; IgG 10 µg/ml
[22] = molecular target: T3, Peptide 18; experiment: peptide microarray; Sp C2; IgG 10 µg/ml
[23] = molecular target: T9, Peptide 30; experiment: peptide microarray; Sp C2; IgG 10 µg/ml
[24] = molecular target: T10, Peptide 25; experiment: peptide microarray; Sp C2; IgG 10 µg/ml
[25] = molecular target: T4, Peptide 1; experiment: peptide microarray; Sp C2; IgG 10 µg/ml
[26] = molecular target: T5, Peptide 3; experiment: peptide microarray; Sp C2; IgG 10 µg/ml
[27] = molecular target: T14, Peptide 28; experiment: peptide microarray; Sp C2; IgG 10 µg/ml
[28] = molecular target: T11, Peptide 24; experiment: peptide microarray; Sp C2; IgG 10 µg/ml
[29] = molecular target: T15, Peptide 37; experiment: peptide microarray; Sp M; IgG 1 µg/ml
[30] = molecular target: T16, Peptide 36; experiment: peptide microarray; Sp M; IgG 1 µg/ml
[31] = molecular target: T17, Peptide 33; experiment: peptide microarray; Sp M; IgG 1 µg/ml
[32] = molecular target: T18, Peptide 43; experiment: peptide microarray; Sp M; IgG 1 µg/ml
[33] = molecular target: T19, Peptide 32; experiment: peptide microarray; Sp M; IgG 1 µg/ml
[34] = molecular target: T20, Peptide 44; experiment: peptide microarray; Sp M; IgG 1 µg/ml
[35] = molecular target: T21, Peptide 38; experiment: peptide microarray; Sp M; IgG 1 µg/ml
[36] = molecular target: T22, Peptide 35; experiment: peptide microarray; Sp M; IgG 1 µg/ml
[37] = molecular target: T23, Peptide 40; experiment: peptide microarray; Sp M; IgG 1 µg/ml
[38] = molecular target: T24, Peptide 42; experiment: peptide microarray; Sp M; IgG 1 µg/ml
[39] = molecular target: T25, Peptide 39; experiment: peptide microarray; Sp M; IgG 1 µg/ml
[40] = molecular target: T26, Peptide 34; experiment: peptide microarray; Sp M; IgG 1 µg/ml

Binder	binding result [1]	corrected fluorescence intensity [2]	corrected fluorescence intensity [3]	corrected fluorescence intensity [4]	corrected fluorescence intensity [5]	corrected fluorescence intensity [6]	corrected fluorescence intensity [7]	corrected fluorescence intensity [8]	corrected fluorescence intensity [9]	corrected fluorescence intensity [10]	corrected fluorescence intensity [11]	corrected fluorescence intensity [12]	corrected fluorescence intensity [13]	corrected fluorescence intensity [14]	corrected fluorescence intensity [15]	corrected fluorescence intensity [16]	corrected fluorescence intensity [17]	corrected fluorescence intensity [18]	corrected fluorescence intensity [19]	corrected fluorescence intensity [20]	further results
B1	binds	2740	3340	4510	0	3540	1110	523	1160	168	772	507	1220	562	1910	10000	4680	8870	448	9590	corrected fluorescence intensity [21]: 7740; corrected fluorescence intensity [22]: 8370; corrected fluorescence intensity [23]: 6020; corrected fluorescence intensity [24]: 3300; corrected fluorescence intensity [25]: 7010; corrected fluorescence intensity [26]: 9510; corrected fluorescence intensity [27]: 2670; corrected fluorescence intensity [28]: 3260; corrected fluorescence intensity [29]: 742; corrected fluorescence intensity [30]: 778; corrected fluorescence intensity [31]: 600; corrected fluorescence intensity [32]: 120; corrected fluorescence intensity [33]: 0; corrected fluorescence intensity [34]: 143; corrected fluorescence intensity [35]: 194; corrected fluorescence intensity [36]: 758; corrected fluorescence intensity [37]: 0; corrected fluorescence intensity [38]: 612; corrected fluorescence intensity [39]: 0; corrected fluorescence intensity [40]: 754
B2	binds	1030	4160	3100	378	2290	546	156	462	154	256	206	548	146	1040	4870	2170	4070	888	4580	corrected fluorescence intensity [21]: 5480; corrected fluorescence intensity [22]: 4500; corrected fluorescence intensity [23]: 4250; corrected fluorescence intensity [24]: 947; corrected fluorescence intensity [25]: 2700; corrected fluorescence intensity [26]: 4830; corrected fluorescence intensity [27]: 1700; corrected fluorescence intensity [28]: 994; corrected fluorescence intensity [29]: 180; corrected fluorescence intensity [30]: 190; corrected fluorescence intensity [31]: 0; corrected fluorescence intensity [32]: 14.5; corrected fluorescence intensity [33]: 0; corrected fluorescence intensity [34]: 0; corrected fluorescence intensity [35]: 0; corrected fluorescence intensity [36]: 181; corrected fluorescence intensity [37]: 0; corrected fluorescence intensity [38]: 41.5; corrected fluorescence intensity [39]: 0; corrected fluorescence intensity [40]: 162
